Measured values published in the RNAGym collection of RNA variant scans (doi:10.7554/elife.90254).

B1: OR4K15 (parent)
chain: GUUAACGGUCAUAGGCCAUGGAAACUAGGAGCACCAUUUCGCUGCCAGUGAAGAAAUGAACAAAGAAAAUCUGGGCCAGGCAGGCAUCAAAAGAAAUAGUCUUGCGCUCAACCAGAAAGUCUGUAAUCAUUUUAAGGGUA

Variants of: B1
Test: self-cleavage, relative activity (ratio to wild type); higher = more cleavage; in vitro, sequencing; the parent is a self-cleaving ribozyme

Variant	self-cleavage
GUAAACGGUCAUAGGCCAUGGAAACUAGGAGCACCAUUUCGCUGCCCGUGAAGAAAUGAACAAAGAAAAUCUGGGCCAGGCAGGCAUCAAAAGAAAUAGUCUUGCGCUCAACCAGAAAGUCUGUAAUCAUUUUAAGGGUA [U3A A47C]	1.17
GUUAACGGUCAUAGGCCAUGGAAACUAGGAGCACCAUUUCGCUGCCUGUGAAGAAAUGAACAAAGAAAAUCUGGGCCAGGCAGGCAUCAAAAGAAAUAGUCUUGCGCUCAACCAGAAAGUCUGUAAUCAUUUUAAGGGGA [A47U U139G]	1.4
GUUAACGGUCAUAGGCCAUGGAAACUAGGAGCACCAUUUCGCUGCCAGUGAAGAAGUGAACAAAGAAAAUCUGGGCCAGGCAGGCAUCAAAAGAAAUAGUCUUGCGCUCAACCAGAAAGUCUGUAAUUAUUUUAAGGGUA [A56G C128U]	0.54
GUUAACGGUCAUAGGCCAUGGAAACUAGGAGCACCAUCUCGCUGCCAGUGAAGAAAUGAACAAAGAAAAUCUGGCCCAGGCAGGCAUCAAAAGAAAUAGUCUUGCGCUCAACCAGAAAGUCUGUAAUCAUUUUAAGGGUA [U38C G75C]	0.14
GUUAACGGUCAUAGGCCAUGGAAACUAGGGGCACCAUUUCGCUGCCAGUGAAGAAAUGAACAAAGAAAAUCUGGGCCAGGCAGGCAUCAAAAGAAAUAGUCUAGCGCUCAACCAGAAAGUCUGUAAUCAUUUUAAGGGUA [A30G U103A]	0.17
GUUAACGGUCAUAGGCCAUGGAAACUAGGAGCACCAUUUCGCUGCCAGUGAAGAAAUGAACAAAGAAAAUCUGGGCCAGGCAGGCAUCAUAAGAAAUAGUCUUGCGCUCAUCCAGAAAGUCUGUAAUCAUUUUAAGGGUA [A90U A111U]	0.11
GUUAACGGUCAUUGGCCAUGGAAACUAGGAGCACCAUUUCGCUGCCAGUGAAGAAAUGAACAAAGAAAAUCUGGGCCAGGCAGGCAUCAAAAGAAAUAGUCUUGCGCUCAACCGGAAAGUCUGUAAUCAUUUUAAGGGUA [A13U A114G]	0.09
GUUAACGGUCAUAGGCCAUGGGAACUAGGAGUACCAUUUCGCUGCCAGUGAAGAAAUGAACAAAGAAAAUCUGGGCCAGGCAGGCAUCAAAAGAAAUAGUCUUGCGCUCAACCAGAAAGUCUGUAAUCAUUUUAAGGGUA [A22G C32U]	0.91
GUUAACGGUCAUAGGCCAUGGAAACAAGGAGCACCAUUUCGCUGCCAGUGAAGAAAUGAACAAAGAAAAUCAGGGCCAGGCAGGCAUCAAAAGAAAUAGUCUUGCGCUCAACCAGAAAGUCUGUAAUCAUUUUAAGGGUA [U26A U72A]	0.28
GUUAACGGUCAUAGGCCAUGGAUACUAGGAGCACCAUUUCGCUGCCAGUGAAGAAAUGAACAAAGAAAAUCUGGGCCAGGCAGGCAUCAAAAGAAAUAGUCUUGCGCUCAACCAGAAAGUCUGUAAUCAUUUUAAAGGUA [A23U G136A]	0.85
GUUAACGGUCAUAGGCCAUGGAAACUAGGAGCACCAUUUCGCUGCCAGUGAAGAAAUGAACAAAGAAAACCUGGGCCAGGCAGGCAUCAAAAGAAAUAGUCUUGCGCUCAACCAGAAGGUCUGUAAUCAUUUUAAGGGUA [U70C A118G]	0.35
GUUAACGGUCAUAGGCCAUGGAAACUAGGAGCACCAUUUCGCUGCCAGUGAAGAAAUGAACAAAGAAAAUCUGGGCCAGGUAGGCAUCAAAAGAAAUAGUCUUGCGCUCAACCAGAAAGUCUGUAAUCAUCUUAAGGGUA [C81U U131C]	0.37
GUCAACGGUCAUAGGCCAUGGAAACUAGGAGCACCAUUUCGCUGCCAGUGAAGAAAUGAACAAAGAAAAUCCGGGCCAGGCAGGCAUCAAAAGAAAUAGUCUUGCGCUCAACCAGAAAGUCUGUAAUCAUUUUAAGGGUA [U3C U72C]	0.25
GUUAACGGUCAUAGGCCAUGGAGACUAGGAGCACCAUUUCGCUGCCAGUGAAGAAAUGAACAAAGAAAAUCUGGGCCAGGCAGGCAUCAAAAGAAAUAGUCUUGCGCUCAACCAGAAAGUCUGUAAUCAUUUUAAGGGCA [A23G U139C]	1.26
GUUAACGGUCAUAGGCCAUGGAAACUAGGAGCACCAUUUCGCUGCCAGUGAAGAAAUGAACAAAGAAAACCUGGGCCAGGCAGGCAUCAAAAGAAAUAGUCUUGCGCUCAACCCGAAAGUCUGUAAUCAUUUUAAGGGUA [U70C A114C]	0
GUUAACGGUCAUAGGCCAUGGAAACUAGGAGCACCAUUUCGCUGCCAGUGAAGAAAUGAACAAAGAAAAUCUGGGCCCGGCAGGCAUCAAAAGAAAUAGUCUUGCGCUCAACCAGGAAGUCUGUAAUCAUUUUAAGGGUA [A78C A116G]	0.13
GUUAACGGUCAUAGGCCAUGGAACCUAGGAGCACCAUUUCGCUGCCAGUGAAGAAAUGAACAAAGAAAAUCUGGGCCAGGCAGGCAUCAAAAGAAAUAGUCUUGCGCUCAACCGGAAAGUCUGUAAUCAUUUUAAGGGUA [A24C A114G]	0.97
GUUAACGGUCAUAGGCCAUGGAAACUAGGAGCACCAUUUCGCUGCCAGUGAAGAAAUGAACAAAGAAAAUCUGGGCCAGGCAGGCAUCAAAAGCAAUAGUCUUGCGCUCAACCAGAAAGUCUGUAGUCAUUUUAAGGGUA [A94C A126G]	0.79
GUUAACGGUCAUAGGCCAUGGAAACUAGGAGCACCAUUUCGCUGCCAGUGAAGAAAUGAACAAAGUAAAACUGGGCCAGGCAGGCAUCAAAAGAAAUAGUCUUGCGCUCAACCAGAAAGUCUGUAAUCAUUUUAAGGGUA [A66U U70A]	0.62
GUUAACGGUCAUAGGCCAUGGAAACUAGGAGCACCAUUUCGCUGCCAGUGAAGAAAUGAACAAAGAAAACCUGGGCCAGGCAGGCAUCAAAAGAAAUAGUCAUGCGCUCAACCAGAAAGUCUGUAAUCAUUUUAAGGGUA [U70C U102A]	0.33
GUUAACGGUCAUAGGCCAUGGGAACUAGGAGCACCAUUUCGCUGCCAGUGAAGAAAUGAACAAAGAAAAUCUGGGCCAGGCAGGCAUCAAAAGAAAUAGUCUUGCGCUUAACCAGAAAGUCUGUAAUCAUUUUAAGGGUA [A22G C109U]	0

Variant	self-cleavage
GUUAACGGUCAUAGGCCACGGAAACUAGGAGCACCAUUUCGCUGCCAGUGAAGAAAUGAACAAAGAAAAUCUGGGCCAGGCAGGCAUCAAAAGAAUUAGUCUUGCGCUCAACCAGAAAGUCUGUAAUCAUUUUAAGGGUA [U19C A96U]	1.51
GUUAACGGUCAUAGGCCAUGGAAUCUAGGAGCACCAUUUCGCUGCCAGUGAAGAAAUGAACAAAGAAAAUCUGGGCCAGGCAGGCAUCAAAAGAAAUAGCCUUGCGCUCAACCAGAAAGUCUGUAAUCAUUUUAAGGGUA [A24U U100C]	2.08
GUUAACGGUCAUAGGCCAUGGAAACUAGGAGCACCAUUUCGCUGCCAGUGAAGAAAUGAACAAAGAAAAUCUGUGCCAGGCAGGCAUCAAAAGAAAUAGUCUUGCGCUCAACCAGAAGGUCUGUAAUCAUUUUAAGGGUA [G74U A118G]	0.1
GUUAACGGUCAUAGGCCAUGGAAACUAGGAGCACCAUUUCGCUGCCAGUGAAGAAAUGAACAAAGAAAGUCUGGGCCAGGCAGGCAUCAAAAGAAAUAGUCUUGCGCUCAACCAGAAAGUCUGUAAUCGUUUUAAGGGUA [A69G A129G]	0.87
GUUAACGGUCAUAGGCCAUGGAAACUAGGAGCACCAUUACGCUGCCAGUGAAGAAAUGAACAAAGAAAAUCUGGGCCAGGCAGGCAUCAAAAGAAAUAGUCUUGCGCUCAACCAGAAAGUCUGUAAUCAUUUUAAGAGUA [U39A G137A]	1.8
GUUAACGGUCAUAGGCCAUGGAAACUAGGAGCACCAUUUCGCUGCCAGUGAAGAAAUGAACAAAGAAAAUCUGGGCCAGGCAGGCAUCAAAAGAAAUAGUCUUGCGCUCAACCAGAAAGUCUGUAAUCAGUUUAGGGGUA [U130G A135G]	1.08
GUUAACGGUCAUAGGCCAUGGAAACUAGGAGCACCAUUUCGCUGCCAGUGAAGAAAUGAACAAAGAAAGUCUGGGCCAGGCAGGCAUCAAAAGAAAUAGUCUUGCGCUCAACCAGAAAGUCUGUAUUCAUUUUAAGGGUA [A69G A126U]	1.33
GUUAACGGUCAUAGGCCAUGGAAACUAGGAGCACCAUUUCGCUGCCAGUGAAGAAAUGAGCAAAGAAAAUCUGGGUCAGGCAGGCAUCAAAAGAAAUAGUCUUGCGCUCAACCAGAAAGUCUGUAAUCAUUUUAAGGGUA [A60G C76U]	0.13
GUUAACGGUCAUAGGCCAUGGAAACUAGGAGCACCAUUUCGCUGCUAGUGAAGAAAUGAACAAAGAAAAUCUGGGCCAGGCAGGCAUCAAAAGAAAUAGUCUUGCGCUCAACCAGGAAGUCUGUAAUCAUUUUAAGGGUA [C46U A116G]	1.37
GUUAACGGUCAUAGGCCAUGGAAACUAGGAGCACCAUGUCGCUGCCAGUGAAGAAAUGAACAAAGAAAAUCUGGGCCAGGCAGGCAUCAAGAGAAAUAGUCUUGCGCUCAACCAGAAAGUCUGUAAUCAUUUUAAGGGUA [U38G A91G]	0.38
GUUAACGGUCAUAGGCCAUGGAAACUAGGAGCACCAUUUCGCUGCCAGUGAAGAAAUGAACAAAGAAAAUCUGGGCCAGGCAGACGUCAAAAGAAAUAGUCUUGCGCUCAACCAGAAAGUCUGUAAUCAUUUUAAGGGUA [G84A A86G]	1.73
GUUAACGGUCACAGGCCAUGGAAACUAGGAGCACCAUUUCGCUGCCAGUGAAGAAAUGAGCAAAGAAAAUCUGGGCCAGGCAGGCAUCAAAAGAAAUAGUCUUGCGCUCAACCAGAAAGUCUGUAAUCAUUUUAAGGGUA [U12C A60G]	1.34
GUUAGCGGUCAUAGGCCAUGGAAGCUAGGAGCACCAUUUCGCUGCCAGUGAAGAAAUGAACAAAGAAAAUCUGGGCCAGGCAGGCAUCAAAAGAAAUAGUCUUGCGCUCAACCAGAAAGUCUGUAAUCAUUUUAAGGGUA [A5G A24G]	1.14
GUUAACGGUCAUAGGCCAUGGAAACUAGGAGCACCAUUUCGCUGCCAGUGAAGAAAUGAACAAAGAAAAUCUGGGCCAGGCAGGCAUCAAAAGAAAUAGUCUUGCGCUCAACCAGAAAGUCUGUAACCCUUUUAAGGGUA [U127C A129C]	0.21
GUUAACGGUCAUAGGCCAUGGAAACUAGGAGCACCAUUUCGCUGCCAGCGAAGAAAUGAACAAAGAAAAUCUGGGCCAGGCAGGCAUCAAAAGGAAUAGUCUUGCGCUCAACCAGAAAGUCUGUAAUCAUUUUAAGGGUA [U49C A94G]	1.44
GUUAACGGUCAUAGGCCAUGGAAACUAGGAGCACCAUUACGCUGCCAGUGAAGAAAUGAACAAAGAAAAUCUGGGCCAGGCAGGCAUCAAAAGAAAUAGUCUUGCGCUUAACCAGAAAGUCUGUAAUCAUUUUAAGGGUA [U39A C109U]	0.37
GUUGACGGUCAUAGGCCAUGGAAACUAGGAGCACCAUUUCGCUGCCAGUGAAGAAAUGAACAAAGAAAAUCUGGGCCAGGCAGGCAUCAGAAGAAAUAGUCUUGCGCUCAACCAGAAAGUCUGUAAUCAUUUUAAGGGUA [A4G A90G]	1.11
GUUAACGGUCAUAGGCCAUGGAAACAAGGAGCACCAUUUCGCUGCCAGUGAAGAAAGGAACAAAGAAAAUCUGGGCCAGGCAGGCAUCAAAAGAAAUAGUCUUGCGCUCAACCAGAAAGUCUGUAAUCAUUUUAAGGGUA [U26A U57G]	0.97
GUUAACGGUCAUAGGCCAUGGAAACUAGGAGCACCACUUCGCUGCCAGUGAAGAAAUGAACAAAGAAAAUCUGGGCCAGGCAGGCAUCAAAAGAAAUAGUCAUGCGCUCAACCAGAAAGUCUGUAAUCAUUUUAAGGGUA [U37C U102A]	1.05
GUUAACGGUCAUAGGCCAUGGAGACUAGGAGCACCAUUUCGCUGCCAGUGAAGAAAUGAACAAAAAAAAUCUGGGCCAGGCAGGCAUCAAAAGAAAUAGUCUUGCGCUCAACCAGAAAGUCUGUAAUCAUUUUAAGGGUA [A23G G65A]	0.71
